Test results from article PMC6987225, “Eukaryotic transcription factors can track and control their target genes using DNA antennas”.

Legend:
Conditions in all cases: protein: recombinant; tags: C-terminal Cys added, labeled with Alexa 488 C5-maleimide; blunt
[1] = target: T1, EngHD (Engrailed homeodomain, DNA-binding domain) (Drosophila melanogaster, UniProt P02836 454-513); assay: FCS; affinity unchanged vs N8; FCS, ~1 nM Alexa 488-EngHD with unlabeled dsDNA titrated; ionic strength 50 mM (NaCl) unless stated; buffer, pH and temperature not in the material
T1 sequence: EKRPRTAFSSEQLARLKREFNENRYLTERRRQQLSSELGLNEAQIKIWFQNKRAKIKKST

[2] = target: T1, EngHD (Engrailed homeodomain, …); assay: FCS; 50 mM ionic strength; FCS, ~1 nM Alexa 488-EngHD with unlabeled dsDNA titrated; ionic strength 50 mM (NaCl) unless stated; buffer, pH and temperature not in the material
[3] = target: T1, EngHD (Engrailed homeodomain, …); assay: as above; remark: listed apart in the source
[4] = target: T1, EngHD (Engrailed homeodomain, …); assay: as above; remark: listed apart in the source
[5] = target: T1, EngHD (Engrailed homeodomain, …); assay: as above; remark: listed apart in the source
[6] = target: T1, EngHD (Engrailed homeodomain, …); assay: as above; remark: listed apart in the source
[7] = target: T1, EngHD (Engrailed homeodomain, …); assay: as above; remark: listed apart in the source
[8] = target: T1, EngHD (Engrailed homeodomain, …); assay: FCS; minimal difference from N7; FCS, ~1 nM Alexa 488-EngHD with unlabeled dsDNA titrated; ionic strength 50 mM (NaCl) unless stated; buffer, pH and temperature not in the material

B1: 150 bp TAATTG half original/half shuffled (m8) (dsDNA)
DNA 1: TACTCATCGATACTCAGTACTCGCGACGCATCGTGTACGCCCGAAATAAATCTGGCCGAAAAGCCATCAATCTATAATTGCAATCTAACTGTGCCTCGGTTTATACCTCCAACTGCAGTACACTGATATGACAGACAGTATGCTCACATA
DNA 2: TATGTGAGCATACTGTCTGTCATATCAGTGTACTGCAGTTGGAGGTATAAACCGAGGCACAGTTAGATTGCAATTATAGATTGATGGCTTTTCGGCCAGATTTATTTCGGGCGTACACGATGCGTCGCGAGTACTGAGTATCGATGAGTA
Question: Does B1 bind [1]?
Answer: binds

B2: 150 bp TAATTG (m6) (dsDNA)
DNA 1: TTCTTAACCAAATTGAATTCTCGCCACCGATCGTGTTCGCCCGAAATAAATCTGGCCGAAAAGCCATCAATCTATAATTGCAATCTAACTGTGCCTCGGTTTATACCTCCAACTGCCGTTCACCGAAAAGGCCGACAGTTTTCCGACAAA
DNA 2: TTTGTCGGAAAACTGTCGGCCTTTTCGGTGAACGGCAGTTGGAGGTATAAACCGAGGCACAGTTAGATTGCAATTATAGATTGATGGCTTTTCGGCCAGATTTATTTCGGGCGAACACGATCGGTGGCGAGAATTCAATTTGGTTAAGAA
Question: B2 was tested. Which binding signal [2] did it give?
Answer: ~2 fold higher affinity than 75 bp TAATTG (N2)

B3: 150 bp TAATTG shuffled (m7) (dsDNA)
DNA 1: TACTCATCGATACTCAGTACTCGCGACGCATCGTGTACGCGCGACATACATCTCACTGATACGCGATCACTCTATAATTGCACTCTATCTGTGCATCGCTCTATAGCTCTATCTGCAGTACACTGATATGACAGACAGTATGCTCACATA
DNA 2: TATGTGAGCATACTGTCTGTCATATCAGTGTACTGCAGATAGAGCTATAGAGCGATGCACAGATAGAGTGCAATTATAGAGTGATCGCGTATCAGTGAGATGTATGTCGCGCGTACACGATGCGTCGCGAGTACTGAGTATCGATGAGTA
Question: Does B3 bind [1]?
Answer: binds

B4: 75 bp TAATTG (m2) (dsDNA)
DNA 1: GCCCGAAATAAATCTGGCCGAAAAGCCATCAATCTATAATTGCAATCTAACTGTGCCTCGGTTTATACCTCCAAC
DNA 2: GTTGGAGGTATAAACCGAGGCACAGTTAGATTGCAATTATAGATTGATGGCTTTTCGGCCAGATTTATTTCGGGC
Question: How did the Kd [3] turn out when B4 was run?
Answer: 7.44 -log10 M

B5: 75 bp TATATA (dsDNA)
DNA 1: GCCCGAAATAAATCTGGCCGAAAAGCCATCAATCTATATATACAATCTAACTGTGCCTCGGTTTATACCTCCAAC
DNA 2: GTTGGAGGTATAAACCGAGGCACAGTTAGATTGTATATATAGATTGATGGCTTTTCGGCCAGATTTATTTCGGGC
Question: With B5 as the binder, how does the binding signal [4] read?
Answer: ~10 fold lower affinity than TAATTA (N3)

B6: 75 bp TAATTT (dsDNA)
DNA 1: GCCCGAAATAAATCTGGCCGAAAAGCCATCAATCTATAATTTCAATCTAACTGTGCCTCGGTTTATACCTCCAAC
DNA 2: GTTGGAGGTATAAACCGAGGCACAGTTAGATTGAAATTATAGATTGATGGCTTTTCGGCCAGATTTATTTCGGGC
Question: How did the Kd [3] turn out when B6 was run?
Answer: 7.79 -log10 M

B7: 75 bp TAATTA (m1) (dsDNA)
DNA 1: GCCCGAAATAAATCTGGCCGAAAAGCCATCAATCTATAATTACAATCTAACTGTGCCTCGGTTTATACCTCCAAC
DNA 2: GTTGGAGGTATAAACCGAGGCACAGTTAGATTGTAATTATAGATTGATGGCTTTTCGGCCAGATTTATTTCGGGC
Question: B7 was tested. Which Kd [5] did it give?
Answer: 8.43 -log10 M

B8: 75 bp GAATTG (dsDNA)
DNA 1: GCCCGAAATAAATCTGGCCGAAAAGCCATCAATCTAGAATTGCAATCTAACTGTGCCTCGGTTTATACCTCCAAC
DNA 2: GTTGGAGGTATAAACCGAGGCACAGTTAGATTGCAATTCTAGATTGATGGCTTTTCGGCCAGATTTATTTCGGGC
Question: How did the binding signal [4] turn out when B8 was run?
Answer: 19 fold lower affinity than TAATTA (N3)

B9: 75 bp CGTGTT (m4) (dsDNA)
DNA 1: GCCCGAAATAAATCTGGCCGAAAAGCCATCAATCTACGTGTTCAATCTAACTGTGCCTCGGTTTATACCTCCAAC
DNA 2: GTTGGAGGTATAAACCGAGGCACAGTTAGATTGAACACGTAGATTGATGGCTTTTCGGCCAGATTTATTTCGGGC
Question: With B9 as the binder, how does the binding signal [4] read?
Answer: 22 fold lower affinity than TAATTA (N3)

B10: 38 bp TAATTG (dsDNA)
DNA 1: AAAAGCCATCAATCTATAATTGCAATCTAACTGTGCCT
DNA 2: AGGCACAGTTAGATTGCAATTATAGATTGATGGCTTTT
Question: How did the Kd [6] turn out when B10 was run?
Answer: 7.26 -log10 M

B11: 75 bp TAATTG high G/C (m3) (dsDNA)
DNA 1: CCCCCTCCCACCCCTCCACCCCCTCCCCTCCCCCCCTAATTGCCCTCCCCTCCCCCACCCCCTCCCCCACCCCCT
DNA 2: AGGGGGTGGGGGAGGGGGTGGGGGAGGGGAGGGCAATTAGGGGGGGAGGGGAGGGGGTGGAGGGGTGGGAGGGGG
Question: How did the Kd [7] turn out when B11 was run?
Answer: ~700 nM

B12: 75 bp CGTGTT shuffled (m5) (dsDNA)
DNA 1: GCTCGACATAGATCTGACTGACATGCTATCAGTCTACGTGTTCAGTCTAGCTGTGCATCGATCTATACATCTAGC
DNA 2: GCTAGATGTATAGATCGATGCACAGCTAGACTGAACACGTAGACTGATAGCATGTCAGTCAGATCTATGTCGAGC
Question: Does B12 bind [8]?
Answer: binds
